# Laboratory results as given in IntAct's records for PubMed 22555612.
# Target: hdac2_mouse Hdac2 (UniProt P70288)
# Sequence (P70288 whole entry): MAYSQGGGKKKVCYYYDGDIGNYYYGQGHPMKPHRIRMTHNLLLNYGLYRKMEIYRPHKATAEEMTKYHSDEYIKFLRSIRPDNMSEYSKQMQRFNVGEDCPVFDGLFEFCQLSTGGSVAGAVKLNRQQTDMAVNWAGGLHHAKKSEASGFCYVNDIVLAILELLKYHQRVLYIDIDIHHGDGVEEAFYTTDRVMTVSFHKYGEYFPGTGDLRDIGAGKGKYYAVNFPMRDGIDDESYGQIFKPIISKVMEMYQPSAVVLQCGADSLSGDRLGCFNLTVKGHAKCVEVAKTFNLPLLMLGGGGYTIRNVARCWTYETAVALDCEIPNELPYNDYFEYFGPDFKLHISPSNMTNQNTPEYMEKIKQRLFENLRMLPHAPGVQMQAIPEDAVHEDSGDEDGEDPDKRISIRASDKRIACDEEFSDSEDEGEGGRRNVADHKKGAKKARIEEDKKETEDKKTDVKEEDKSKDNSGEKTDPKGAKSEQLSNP
# Sequence of PR domain zinc finger protein 1 (Homo sapiens), O75626-2 K778R (O75626 37-825, stated change not applied): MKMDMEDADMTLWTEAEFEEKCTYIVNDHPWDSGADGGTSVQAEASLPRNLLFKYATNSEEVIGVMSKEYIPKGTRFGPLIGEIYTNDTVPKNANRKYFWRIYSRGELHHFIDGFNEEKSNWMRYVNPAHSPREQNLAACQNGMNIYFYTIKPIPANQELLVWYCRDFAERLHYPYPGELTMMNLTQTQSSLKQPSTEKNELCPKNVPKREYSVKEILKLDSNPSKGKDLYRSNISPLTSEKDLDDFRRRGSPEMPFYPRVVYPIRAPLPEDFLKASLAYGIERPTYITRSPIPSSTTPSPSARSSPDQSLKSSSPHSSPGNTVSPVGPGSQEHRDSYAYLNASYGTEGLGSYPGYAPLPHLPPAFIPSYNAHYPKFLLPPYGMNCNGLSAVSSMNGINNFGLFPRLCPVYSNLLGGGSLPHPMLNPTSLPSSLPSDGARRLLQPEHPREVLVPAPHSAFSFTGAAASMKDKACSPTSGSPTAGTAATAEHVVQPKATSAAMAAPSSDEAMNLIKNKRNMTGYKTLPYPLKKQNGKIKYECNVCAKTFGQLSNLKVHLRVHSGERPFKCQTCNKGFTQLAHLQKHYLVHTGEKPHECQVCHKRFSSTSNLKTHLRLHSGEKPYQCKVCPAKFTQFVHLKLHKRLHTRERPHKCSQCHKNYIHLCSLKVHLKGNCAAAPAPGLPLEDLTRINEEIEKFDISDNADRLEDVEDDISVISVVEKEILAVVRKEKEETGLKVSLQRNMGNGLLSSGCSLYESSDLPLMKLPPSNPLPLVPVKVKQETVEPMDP
substance,measurement,value
"PR domain zinc finger protein 1 (Homo sapiens), O75626-2 K778R",effect of a mutation on the interaction,decreasing interaction
